Measurements as given in patent US20110143394, “Methods and Means for Metabolic Engineering and Improved Product Formation by Micro-Organisms” (Universiteit Leiden, published 2011).

T1: DasR (SCO5231) (Streptomyces coelicolor, UniProt Q9K492 SEQ:1-254)
T1 sequence: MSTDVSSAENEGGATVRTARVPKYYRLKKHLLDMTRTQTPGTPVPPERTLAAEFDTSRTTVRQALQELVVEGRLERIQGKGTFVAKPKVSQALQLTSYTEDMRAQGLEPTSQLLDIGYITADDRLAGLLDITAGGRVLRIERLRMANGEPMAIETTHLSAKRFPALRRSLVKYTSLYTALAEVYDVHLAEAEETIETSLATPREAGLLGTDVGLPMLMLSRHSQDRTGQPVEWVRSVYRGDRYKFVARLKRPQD

B1: crp cis-element oligo (dsDNA)
DNA 1: TGCGGCATCCTTGTGACAGATCACACTGTTTGGACT
DNA 2: AGTCCAAACAGTGTGATCTGTCACAAGGATGCCGCA
B2: crr dre oligo (dsDNA)
DNA 1: CCGTGAGGAGTGTGGTCTAGACCTCTAATCGGAACA
DNA 2: TGTTCCGATTAGAGGTCTAGACCACACTCCTCACGG

Columns and labels:
[1] = target: T1, DasR (SCO5231); experiment: EMSA; negative control; settings: tags: His6; chain copies: 2; label: fluorescent
Description: (§1) Electromobility gel shift assay (EMSA). EMSAs were performed with fluorescent probes (10 nM) with an ALF express sequencer (Filee et al., 2001). Purified DasR (3 μM) and 1000-fold excess of non-specific DNA were used in the reaction mixture. Predicted cis-acting elements were taken from the promoter regions of actII-ORF4 (SCO5085; 5′-[…]-3′ (SEQ ID NO:530)), and redZ (SCO5881; 5′-[…]-3′ (SEQ ID NO:531)). Known cis-acting elements upstream of crr (SCO1390; […]-3′ (SEQ ID NO:532)), and crp (SCO3571; 5′-[…]-3′ (SEQ ID NO:533)) were used as positive and negative controls, respectively. The 16 nt dre sites are underlined.

[2] = target: T1, DasR (SCO5231); experiment: EMSA; no free probe left; 3 uM DasR, 10 nM probe, 1000-fold non-specific DNA; complex prevented by glucosamine-6-P (data not shown); settings: tags: His6; chain copies: 2; label: fluorescent
Description: as §1

Binder	binding result [1]	binding result [2]
B1	no binding	–
B2	–	binds
